Where “and” joins values, the source holds several entries; their conditions need not be identical. Equal values may be shown once.
B1: Sima3.2 (designed binder)
chain: STNISPKQGLDKAKYFSGKWYLTHVLIKDPKIVSQFCASFTPRESDGTVKIAVYLYLAIKKTSDYAIGEGKLESSGLQYTATSKVVDKKKAVLKELDERHSYTVTVLEADDSSALTHITVREGSKDYGDYYLVLTHQKDAEPSAKVKSAVTQAGLQLSQFVGTKDLGCQYDDQFTSL
notes: not shown: N-terminal poly-histidine tag and thrombin cleavage site from pET28a(+)
B2: Sam0.7 (designed binder)
chain: LPTAEEVQKLMARYIELMDVGDIEAIVQMYADDATVEAPFGAPPIHGRERIAYFYRRMLGGGIARATLTGPVRASHNGTGAMPFRVEYVFNGQPFAMDVRVEMRFDEHGRIQTMQAYWDWVNLSVREP
notes: Designed on the ketosteroid isomerase scaffold (PDB 1OH0); Made in E. coli; The monomeric gel filtration fraction was used; not shown: N-terminal poly-histidine tag and thrombin cleavage site from pET28a(+)

How the values were obtained:
[1] = target: VEGF (autocrine, of U937 acute myeloid leukemia cells) (UniProt P15692-4 27-191, limits assumed); test: cell-based or functional assay
[2] = target: T1, Recombinant Human VEGF165 (R&D Systems, 293-VE-010/CF) (human, UniProt P15692 27-191); test: SPR (Biacore X100), rhVEGF165 amine-coupled to CM5 chip, design as analyte, multi-cycle kinetics, 1:1 binding assumed
T1 construct: mature; Amine-coupled to a CM5 chip for SPR, and added to the medium in the HUVEC survival assay; also called rhVEGF
T1 sequence (P15692 other isoform, or with tags, fused parts or gaps): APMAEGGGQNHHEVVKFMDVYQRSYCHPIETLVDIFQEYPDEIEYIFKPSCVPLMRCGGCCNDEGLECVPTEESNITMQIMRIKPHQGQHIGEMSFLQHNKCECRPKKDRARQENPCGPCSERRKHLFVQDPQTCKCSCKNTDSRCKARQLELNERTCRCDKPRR

Chain of VEGF (autocrine, of U937 acute myeloid leukemia cells) (P15692 other isoform, or with tags, fused parts or gaps limits assumed): as the sequence (P15692 other isoform, or with tags, fused parts or gaps) above

| Binder | IC50, proliferation of U937 cells [1] | Kd [2] |
| --- | --- | --- |
| B1 | 3.6 µg/ml and 180 nM | 14 nM |
| B2 | 8 µg/ml and 533 nM | 190 nM |

Source: patent EP4643867A1 (Eberhard Karls Universität Tübingen (Medizinische Fakultät), dated 2025)
